Assay results reported in patent publication US20260234268A1, “ANTI-ASGR1 MONOCLONAL ANTIBODY AND USE THEREOF” (CHOLESGEN (SHANGHAI) CO., LTD., priority 2022, published 2026).

How the values were obtained:
LXRα [1] = test: Western blotting of LXRα in primary hepatocytes incubated with monoclonal neutralizing antibodies; type: cell-based, mouse; details: primary hepatocytes of wild-type C57B/L6 mice, various concentrations, 72 hours, Western blotting (FIG. 1d)
[2] = system: mice fed a high-fat, high-cholesterol, and cholate (HF/HC/BS) diet; test: 4B9 in mice fed HF/HC/BS diet, 14 days (Example 1, FIG. 2); type: in vivo, mouse
Text: (§1) All data are presented as mean±SEM.
We further investigated whether 4B9 was able to completely simulate the improvement of Asgr1 deletion on high-fat, high-cholesterol conditions.

[3] = system: mice fed a high-fat, high-cholesterol, and cholate (HF/HC/BS) diet; test: 4B9 and atorvastatin, alone or combined, in mice fed HF/HC/BS diet, 14 days (Example 2, FIG. 3)
Experimental: 8-week-old Asgr1 knockout mice and wild-type littermates are randomly divided into 8 groups as shown in the figure according to the genotype, with 6 mice per group. The mice are given free access to water and fed a high-fat, high-cholesterol, and cholate (HF/HC/BS) diet (60% fat, 1.25% cholesterol, and 0.5% cholate). […] After 14 days, the mice are fasted for 4 hours before being sacrificed. All data are presented as mean±SEM. Statistical significance is calculated using an unpaired two-tailed Student's t-test. *p<0.05, **p<0.01, ***p<0.001. (a) Western blotting analysis of liver samples; (b) total cholesterol in serum; (c) triglyceride in serum; (d) total cholesterol in liver; (e) triglyceride in liver; (f) concentration of cholesterol in bile; (g) total cholesterol in bile; (h) concentration of bile acid in bile; (i) total bile acid in bile; (j) total cholesterol in feces; (k) body weight; (l) daily food intake; (m) ratio of liver weight to body weight; (n) blood glucose; (o) alanine transaminase in serum; (p) aspartate transaminase in serum; (q-r) real-time quantitative PCR analysis of genes related to cholesterol efflux, cholesterol synthesis and absorption, lipid synthesis, and bile acid synthesis in the liver of mice, and genes in other pathways, with cyclophilin as an internal reference; (s) hematoxylin-eosin staining of liver sections; (t) oil red O staining of liver sections.
In the experiment, wild-type littermates were used as a control. All mice were housed in an SPF (specific pathogen-free) facility and kept on a 12-hour light/12-hour dark cycle. 8-week-old male or female mice were fed a high-fat, high-cholesterol, and cholate diet (Research Diets, D12109C) as required by the experimental protocols. For treatments involving antibody neutralization or the combination of antibodies with statins or Ezetimibe, the mice were intraperitoneally injected with antibodies or intragastrically administered with drugs at specified doses. All animals were fasted for 4 hours before being sacrificed.
The collected cells or tissues were lysed in RIPA lysis buffer supplemented with protease and phosphatase inhibitors. The RIPA lysis buffer contained 50 mM Tris-HCl (pH=8.0), 150 mM NaCl, 2 mM MgCl2, 1.5% NP-40, 0.1% SDS, and 0.5% sodium deoxycholate. The protease inhibitor contained 10 μM MG-132, 10 μg/mL leupeptin, 1 mM PMSF, 5 μg/mL pepstatin, 25 μg/mL ALLN, and 1 mM DTT. The protein concentration of the lysate was determined using a BCA method (Thermo Fisher Scientific). The protein samples were incubated with membrane solubilization buffer (62.5 mM Tris-HCl (pH=6.8), 15% SDS, 8 M urea, 10% glycerol, and 100 mM DTT) and 4× loading buffer (150 mM Tris-HCl (pH=6.8), 12% SDS, 30% glycerol, 6% β-mercaptoethanol, and 0.02% bromophenol blue) at 37° C. for 30 minutes. The protein samples were separated by SDS-PAGE and transferred to a PVDF membrane, which was blocked in TBST, i.e., TBS containing 0.075% Tween 20 and 5% skim milk (3% BSA for phosphorylation experiments) for 1 hour. The membrane was incubated overnight at 4° C. with a specified primary antibody, and washed three times with TBST. Finally, Pierce ECL Plus Western blotting substrate (Thermo Fisher Scientific) was used for detection.
Blood was collected from the orbital sinus to obtain serum for the measurement of total cholesterol and triglyceride.

[4] = system: mice fed a high-fat, high-cholesterol, and cholate (HF/HC/BS) diet; test: 4B9 and Ezetimibe, alone or combined, in mice fed HF/HC/BS diet (Example 3, FIG. 4); type: in vivo, mouse
Experimental: as §1
We then devised an experiment as in FIG. 4 to verify the hypothesis. Mice were randomly divided into 8 groups according to the genotype (n=6) and fed an HF/HC/BS diet. They were intragastrically administered with EZ at 10 mg/kg per day and were intraperitoneally injected with 4B9 at 10 mg/kg every other day. The mice were sacrificed on day 7 to collect their tissues.

target genes of LXR = test: Real-time quantitative PCR of target genes of LXR in primary hepatocytes incubated with 4B9; type: cell-based; details: primary mouse hepatocytes, 72 hours, real-time quantitative PCR (FIG. 1e)
Text: (§2) (a) Steps for preparing ASGR1 monoclonal neutralizing antibody. Purified ASGR1 protein is used as the antigen to immunize rabbits, and after the first round of screening, four B-cell monoclonal antibodies are selected as candidates. The coding region of the variable region of the antibody is then sequenced and cloned into an antibody expression vector, which is transfected into mammalian cells. The efficiency of transfection is confirmed by Western blotting and real-time quantitative PCR. Finally, the rabbit-derived Fc fragment is replaced with a murine Fc fragment. The neutralizing antibody 4B9 is selected for large-scale production and used in subsequent experiments. (b) ASGR1 protein purified from HEK293T cells is stained with Coomassie Brilliant Blue. (c) Huh7 cells are incubated with purified neutralizing antibody for 72 hours, followed by Western blotting analysis of the protein expression of LXRα. (d) Primary hepatocytes are isolated from 8-week-old wild-type C57B/L6 mice. […] The primary hepatocytes are incubated with ASGR1 neutralizing antibody 4B9 for 72 hours, after which cells are collected, total RNA is extracted from the cells, and target genes of LXR are analyzed by real-time quantitative PCR. […]

LXRα [5] = test: Western blotting of LXRα in Huh7 cells incubated with purified neutralizing antibody; type: cell-based, human; details: 72 hours, Western blotting (FIG. 1c)
Text: as §2

[6] = wild-type mice, HF/HC/BS diet, 4B9 10 mg/kg/day i.p. every other day, 14 days, Western blotting (FIG. 2a)
[7] = sacrificed on day 7, 4B9 10 mg/kg i.p. every other day, EZ 10 mg/kg per day intragastric (FIGS. 4a, 4p-q)

B1: 4B9: ASGR1 monoclonal neutralizing antibody from immunized rabbits, rabbit Fc replaced with mouse Fc; VL SEQ ID NO: 28, VH SEQ ID NO: 29 (antibody, listed as Oryctolagus cuniculus, V domains shown)
VH: QSLEESGGDLVKPGATMTLTCKASGFSFSGSLWICWVRQAPGKGLEWIACIYVGSSGSTYYASWAKGRFTISTTSSTTVTLQMTSLTAADTATYFCARRYTDAYGGYPAGSFVFKLWGPGTLVTVSS
VL: QVLTQTPSPVSAAVGGTVTINCQASQSVYNNKNLGWYQQKPGQPPKLLIYYASDLASGVPSRFKGSGSGKQFTLTISDVQCDDAATYYCQGEFSCSSADCCAFGGGTEVVVK
modifications: mouse Fc
protein stability of LXRα (LXRα [1]): significantly increase
all parameters in Asgr1 knockout mice with or without injection of 4B9 ([2]; Asgr1 knockout mice, HF/HC/BS diet, 4B9 10 mg/kg/day i.p. every other day, 14 days (FIG. 2a)): remained unchanged
real-time quantitative PCR of liver genes (cholesterol efflux, cholesterol synthesis and absorption, lipid synthesis, bile acid metabolism) ([2]; HF/HC/BS diet, 4B9 10 mg/kg/day i.p. every other day, 14 days (FIG. 2b)): consistent with protein-level changes
body weight ([2]; HF/HC/BS diet, 4B9 10 mg/kg/day i.p. every other day, 14 days (FIG. 2n)): no significant changes
daily food intake ([2]; HF/HC/BS diet, 4B9 10 mg/kg/day i.p. every other day, 14 days (FIG. 2o)): no significant changes
ratio of liver weight to body weight ([2]; HF/HC/BS diet, 4B9 10 mg/kg/day i.p. every other day, 14 days (FIG. 2p)): no significant changes
blood glucose ([2]; HF/HC/BS diet, 4B9 10 mg/kg/day i.p. every other day, 14 days (FIG. 2q)): no significant changes
ALT (alanine transaminase in serum) ([2]; HF/HC/BS diet, 4B9 10 mg/kg/day i.p. every other day, 14 days (FIG. 2r)): no significant changes
AST (aspartate transaminase in serum) ([2]; HF/HC/BS diet, 4B9 10 mg/kg/day i.p. every other day, 14 days (FIG. 2s)): no significant changes
total cholesterol in serum ([2]; HF/HC/BS diet, 4B9 10 mg/kg/day i.p. every other day, 14 days, vs control group (FIG. 2c)): significant decrease
total cholesterol in liver ([2]; HF/HC/BS diet, 4B9 10 mg/kg/day i.p. every other day, 14 days, vs control group (FIG. 2e)): significant decrease
triglyceride in liver ([2]; HF/HC/BS diet, 4B9 10 mg/kg/day i.p. every other day, 14 days, vs control group (FIG. 2f)): significant decrease
total amount of total cholesterol in bile ([2]; HF/HC/BS diet, 4B9 10 mg/kg/day i.p. every other day, 14 days, vs control group (FIG. 2i)): significant increase
total cholesterol in feces ([2]; HF/HC/BS diet, 4B9 10 mg/kg/day i.p. every other day, 14 days, vs control group (FIG. 2k)): significant increase
concentration of total bile acid in bile ([2]; HF/HC/BS diet, 4B9 10 mg/kg/day i.p. every other day, 14 days, vs control group (FIG. 2l)): significant increase
total amount of total bile acid in bile ([2]; HF/HC/BS diet, 4B9 10 mg/kg/day i.p. every other day, 14 days, vs control group (FIG. 2m)): significant increase
concentration of total cholesterol in bile ([2]; HF/HC/BS diet, 4B9 10 mg/kg/day i.p. every other day, 14 days, vs control group (FIG. 2h)): significant increase
triglyceride in serum ([2]; HF/HC/BS diet, 4B9 10 mg/kg/day i.p. every other day, 14 days, vs control group (FIG. 2d)): significant decrease
volume of gallbladder ([2]; HF/HC/BS diet, 4B9 10 mg/kg/day i.p. every other day, 14 days, vs control group (FIGS. 2g, j)): significant increase
overall lipid-lowering effect ([2]; summary of Example 1, high-fat, high-cholesterol diet): very significant lipid-lowering effect
BARD1 in liver [2, 6]: significantly reduced
LDLR in liver [2, 6]: remained unchanged
cholesterol efflux-related proteins (LXR, ABCG8, ABCA1, CYP7A1) in liver [2, 6]: significantly increased
lipid synthesis-related proteins SREBP1 and FASN in liver [2, 6]: significantly reduced
p-ACC in liver [2, 6]: significantly up-regulated
cholesterol synthesis or absorption-related genes and their proteins in liver ([3]; 4B9 10 mg/kg/day i.p. every other day (FIGS. 3a, 3q-r)): without affecting the levels
total cholesterol in serum ([3]; 4B9 10 mg/kg/day i.p. every other day, atorvastatin 30 mg/kg/day intragastric daily (FIG. 3b)): effectively reduce
triglyceride in serum ([3]; 4B9 10 mg/kg/day i.p. every other day, atorvastatin 30 mg/kg/day intragastric daily (FIG. 3c)): effectively reduce
triglyceride in liver ([3]; 4B9 10 mg/kg/day i.p. every other day, atorvastatin 30 mg/kg/day intragastric daily (FIG. 3e)): effectively reduce
total amount of total cholesterol in bile ([3]; 4B9 10 mg/kg/day i.p. every other day, atorvastatin 30 mg/kg/day intragastric daily (FIG. 3g)): increased
total amount of total bile acid in bile ([3]; 4B9 10 mg/kg/day i.p. every other day, atorvastatin 30 mg/kg/day intragastric daily (FIG. 3i)): increased
total cholesterol in feces ([3]; 4B9 10 mg/kg/day i.p. every other day, atorvastatin 30 mg/kg/day intragastric daily (FIG. 3j)): significantly increased
total cholesterol in liver ([3]; 4B9 10 mg/kg/day i.p. every other day, atorvastatin 30 mg/kg/day intragastric daily (FIG. 3d)): effectively reduce
lipid synthesis-related genes and their proteins (SREBP1, FASN) in liver ([3]; 4B9 10 mg/kg/day i.p. every other day, atorvastatin 30 mg/kg/day intragastric daily (FIGS. 3a, 3q-r)): inhibited the levels
body weight ([4]; 8 groups of mice, sacrificed on day 7, 4B9 10 mg/kg i.p. every other day, EZ 10 mg/kg per day intragastric (FIG. 4j)): No significant differences
daily food intake ([4]; 8 groups of mice, sacrificed on day 7, 4B9 10 mg/kg i.p. every other day, EZ 10 mg/kg per day intragastric (FIG. 4k)): No significant differences
ratio of liver weight to body weight ([4]; 8 groups of mice, sacrificed on day 7, 4B9 10 mg/kg i.p. every other day, EZ 10 mg/kg per day intragastric (FIG. 4l)): No significant differences
blood glucose ([4]; 8 groups of mice, sacrificed on day 7, 4B9 10 mg/kg i.p. every other day, EZ 10 mg/kg per day intragastric (FIG. 4m)): No significant differences
ALT ([4]; 8 groups of mice, sacrificed on day 7, 4B9 10 mg/kg i.p. every other day, EZ 10 mg/kg per day intragastric (FIG. 4n)): No significant differences
AST ([4]; 8 groups of mice, sacrificed on day 7, 4B9 10 mg/kg i.p. every other day, EZ 10 mg/kg per day intragastric (FIG. 4o)): No significant differences
cholesterol synthesis or absorption-related genes and their proteins in liver ([4]; sacrificed on day 7, 4B9 10 mg/kg i.p. every other day (FIGS. 4a, 4p-q)): without affecting the levels
total cholesterol in serum ([4]; sacrificed on day 7, 4B9 10 mg/kg i.p. every other day, EZ 10 mg/kg per day intragastric (FIG. 4b)): effectively reduce
triglyceride in serum ([4]; sacrificed on day 7, 4B9 10 mg/kg i.p. every other day, EZ 10 mg/kg per day intragastric (FIG. 4c)): effectively reduce
triglyceride in liver ([4]; sacrificed on day 7, 4B9 10 mg/kg i.p. every other day, EZ 10 mg/kg per day intragastric (FIG. 4e)): effectively reduce
total amount of total cholesterol in bile ([4]; sacrificed on day 7, 4B9 10 mg/kg i.p. every other day, EZ 10 mg/kg per day intragastric (FIG. 4g)): increased
total amount of total bile acid in bile ([4]; sacrificed on day 7, 4B9 10 mg/kg i.p. every other day, EZ 10 mg/kg per day intragastric (FIG. 4i)): increased
total cholesterol in liver ([4]; sacrificed on day 7, 4B9 10 mg/kg i.p. every other day, EZ 10 mg/kg per day intragastric (FIG. 4d)): effectively reduce
cholesterol efflux-related genes and their proteins (LXRs, ABCG8, ABCA1, CYP7A1) in liver [4, 7]: increased levels
lipid synthesis-related genes and their proteins (SREBP1, FASN) in liver [4, 7]: inhibited the levels
cholesterol efflux-related genes (target genes of LXR) (target genes of LXR): significantly up-regulated
protein stability of LXRα (LXRα [5]): significantly increase
